Laboratory results reported in US20260234270A1, “METHODS FOR TREATING CONDITIONS USING ANTI-NMDA RECEPTOR ANTIBODIES” (Lankenau Institute for Medical Research, priority 2022, published 2026).
“Also recorded” adds a separate entry of the source.

Key:
[1] = system: tinnitus; details: intratympanic injection; cited from earlier work
[2] = system: monkey model of experimental glaucoma; details: cited from earlier work
[3] = system: streptozotocin-induced diabetic mouse model; details: cited from earlier work
[4] = system: retinal cells; details: glaucoma, elevated homocysteine; cited from earlier work
[5] = system: amino terminal domain of GluN1; test: Competitive binding assay, Whole Cell ELISA with HEK293T-ATD cells; details: for Competition of 1D1 with mixed 2G6 and 5F5 mAbs for binding to NMDAR ATD: experiments similar to Example 2; for Binding of one biotinylated mAb in the presence of increasing concentrations of the other mAb (2G6 versus 5F5): HEK293T-ATD cells, competitor 50 to 0.2 μg/mL, biotinylated mAb 5 μg/mL
From the text: We assessed the binding epitopes of the 2G6 and 5F5 mAbs. We tested whether they bind overlapping epitopes on GluN1, using a competitive binding assay with HEK293T-ATD cells, which express the amino terminal domain of GluN1. Sharma, R., Al-Saleem, F. H., Panzer, J., Lee, J., Puligedda, R. D., Felicori, L. F., Kattala, C. D., Rattelle, A. J., Ippolito, G., Cox, R. H., Lynch, D. R. and Dessain, S. K. (2018), Monoclonal antibodies from a patient with anti-NMDA receptor encephalitis. Ann Clin Transl Neurol, 5:935-951, which is incorporated herein by reference.
HEK293T-ATD cells (10^5 cells/well) were tested in a Whole Cell ELISA with luminescent detection method. We biotinylated the 5F5 and 2G6 or 5F5 using the EZ-Link™ Hydrazide-Biotin kit (Thermo Fisher), then generated dilution series of 2G6 or 5F5 (50 μg/mL to 0.2 μg/mL) and added to them the plate for 1 h at 37° C., followed by three washes with PBST. We then added the biotinylated 5F5 or 2G6 mAbs at 5 μg/mL, or PBS, and incubated for 1 h at 37° C. followed by three washes with PBST. The Pierce Streptavidin Poly-HRP substrate (Thermo Fisher) was added at 1:2000 dilution and incubated for 1 h at 37° C. This was followed by SuperSignal ELISA Femto Substrate, (1:1 ratio) (Thermo Fisher) and relative luminescence values were measured using the Synergy II plate reader. Duplicate binding curves were plotted and the linear portions were used for analysis using Excel.
We measured binding of one mAb, biotinylated, in the presence of increasing concentrations of the other.
Experiments similar to those done in Example 2 were used to test whether the 1D1 binds a site on the NMDAR ATD that overlaps 2G6 and 5F5. In these experiments, 1D1 binding was tested in competition with mixed 2G6 and 5F5 mAbs.

[6] = target: NMDAR GluN1 antigen (Mus musculus, UniProt P35438); test: Immunofluorescence staining of mouse retinas (normoxic; oxygen induced retinopathy model); type: binding; details: chimeric antibodies
[7] = target: T1, NMDAR GluN1 epitopes (Mus musculus, UniProt P35438); test: Antibody binding in mouse retina, model of retinitis pigmentosa
T1 construct: from tissue; host or cells: mouse retina, model of retinitis pigmentosa
From the text: Left panels show DAPI staining, middle panels show antibody staining, right antibodies show merged imaging.

[8] = system: oxygen induced retinopathy (OIR) in mice; test: Mouse oxygen induced retinopathy (OIR) model, hyperoxia induced hemorrhage; type: in vivo; details: hyperoxia P7 to P12; eye injected at P12; other eye PBS
Method: Neonatal mice were exposed to hyperoxia (75% oxygen) from postnatal day 7 (P7) to P12, and then returned to room air. Upon return to room temperature, at P12, the eye on the right was injected with 5F5 antibody against NMDAR, while the left eye in the figure was injected with PBS.
We next examined the potential effects of the NMDAR antibodies on pathological retinal neovascularization. We used the well characterized model of oxygen induced retinopathy (OIR) in mice. In this model, neonatal mice are exposed to hyperoxia (75% oxygen) from postnatal day 7 (P7) to P12, and then returned to room air. This approach, induces pathological neovascularization in the retina. In FIGS. 3A and 3B, a comparison is shown between two eyes of a mouse exposed to hyperoxia. Upon return to room temperature, at P12, the eye in FIG. 3B was injected with 5F5 antibody against NMDAR, while the eye in FIG. 3A was injected with PBS. […] This is a wholly unexpected finding.

[9] = hyperoxic conditions (75% oxygen P7 to P12, oxygen induced retinopathy model)

Molecule	Competition of 1D1 with mixed 2G6 and 5F5 mAbs for binding to NMDAR ATD [5]	Antibody binding in mouse retina [6, 9]	Antibody binding in mouse retina ([6]; normoxic conditions)	Binding of one biotinylated mAb in the presence of increasing concentrations of the other mAb (2G6 versus 5F5) [5]	Antibody binding in mouse retina (epitope expression) [7]	further results
CN[C@]1(c2ccccc2Cl)CCCCC1=O [Esketamine]	–	–	–	–	–	Activity in treatment of tinnitus [1]: has shown activity in treatment of tinnitus
CC12CC3CC(C)(C1)CC(N)(C3)C2 [Memantine]	–	–	–	–	–	Retinal damage [2]: reduced retinal damage; Retinal toxicity [3]: reduce retinal toxicity
C[C@]12N[C@H](Cc3ccccc31)c1ccccc12 [MK-801]	–	–	–	–	–	Homocysteine toxicity to retinal cells via NMDAR [4]: inhibited
1D1: monoclonal human anti-NMDAR (GluN1) antibody; variable heavy chain SEQ ID NO: 5, light chain SEQ ID NO: 7 (antibody, listed as Mus musculus, listed as Homo sapiens, V domains shown) VH: LVQLVESGGGVVQSGRSLRLSCAASGFAFHTFTIHWVRQAPGKGLDWVTAIYFDGTKKYYADSVKGRFTVSRDNSKNTVYLQMNGLRGEDTAVYYCARARYSYGLSFDYWGQGTPVTVSS VL: QSVVTQPPSVSAAPGQKVTISCSASSSYLGSNYVSWYQQLPGTAPKLLIYDNNKRSSGISDRFSGSKSGTSATLDITGLQTGDEADYYCGAWDSSLSVVVFGGGTKLTVL	not inhibited by 2G6 and 5F5 binding	expressed in the mouse retina; also recorded: immunoreactive with the outer segment of the photoreceptors as well as the choriocapillaris layers of the mouse retina; also recorded: show binding in outer segments of mouse retina	None of the anti-NMDAR antibodies or the control antibody bound to mouse retina	–	–	–
5F5: monoclonal human anti-NMDAR (GluN1) antibody; variable heavy chain SEQ ID NO: 1, light chain SEQ ID NO: 3; chimeric form in Examples 5-8 (antibody, listed as Mus musculus, listed as Homo sapiens, V domains shown) VH: QVQLVESGGGVVRPGGSLRLSCAASGFTFSTYSLHWVRQAPGKGLEWVGVILYDGSKKYYADSVRGRFTISRDNSKSTLNLDMSSLRPDDTAVYYCARDPIAVAPRPSGMVPQGFDYWGQGTLVTVSS VL: QSVVTQPPSASGTPGQRVTISCSGSSSNIGRNFVFWYRQLPGTAPKVLIYKNIQRPSGVPDRISGSRSGSSASLAISGLRSEDEADYYCASWDDSLSGVVFGGGTKLTVL	not inhibited by 1D1	shows staining; also recorded: show binding in outer segments of mouse retina	None of the anti-NMDAR antibodies or the control antibody bound to mouse retina	Bind Different Sites on the NMDAR	expressed in the mouse retina	Antibody binding in mouse retina ([6]; hyperoxic conditions (75% oxygen P7 to P12, oxygen induced retinopathy model), listed as 5G5): immunoreactive with the outer segment of the photoreceptors as well as the choriocapillaris layers of the mouse retina; Retinal bleeding / pathological neovascularization of the treated eye [8]: Prevents Hyperoxia Induced Hemorrhage; also recorded: the treated eye shows no bleeding
2G6: monoclonal human anti-NMDAR (GluN1) antibody; variable heavy chain SEQ ID NO: 9, light chain SEQ ID NO: 11 (antibody, listed as Mus musculus, listed as Homo sapiens, V domains shown) VH: QVQLQESGGGVVQPGRSLRLSCAASGFSFNAFAMHWVRQAPGKGLEWVARISHYGSDDYYADSVKGRFTISRDNSQNTLFLQMNSLKAEDTGVYYCWRGFTLVRGVISRNPINRFSGMDVWGQGTTVTVS VL: SYELMQPPSVSVSPGQTARITCSGDALPKKYAYWYQQKSGQAPILVIYEDNKRPSGIPERFSGSSSGTMATLTISGAQVEDEADYFCYSTDSSGNHGVFGGGTKLTVL	not inhibited by 1D1	expressed in the mouse retina; also recorded: immunoreactive with the outer segment of the photoreceptors as well as the choriocapillaris layers of the mouse retina; also recorded: show binding in outer segments of mouse retina	None of the anti-NMDAR antibodies or the control antibody bound to mouse retina	Bind Different Sites on the NMDAR	expressed in the mouse retina	–
